{"source": "the DeepSol protein solubility set"}
{"test": "soluble on expression in E. coli; label from the status in PepcDB or PDB records"}
{"sequence": "STGQGQSASGSSAWSTVFRHVRYENLIAGVSGGVLSNLALHPLDLVKIRFAVSDGLELRPKYNGILHCLTTIWKLDGLRGLYQGVTPNIWGAGLSWGLYFFFYNAIKSYKTEGRAERLEATEYLVSAAEAGAMTLCITNPLWVTKTRLMLQYDAVVNSPHRQYKGMFDTLVKIYKYEGVRGLYKGFVPGLFGTSHGALQFMAYELLKLKYNQHINRLPEAQLSTVEYISVAALSKIFAVAATYPYQVVRARLQDQHMFYSGVIDVITKTWRKEGVGGFYKGIAPNLIRVTPACCITFVVYENVSHFLLDLREKRK", "soluble on expression in E. coli": "soluble"}
{"sequence": "MGSDKIHHHHHHMAKKHEPFVIGDVSVAAGTQQSVKLPAAKLYNDTPMDLHVEVFHGTKAGPVLLVCAAIHGDELNGIEICRRLLGRVNAKTLTGTLLIVPIVNVFGFIQQSRYLPDRRDLNRCFPGSAKGALASRLAHLFSSILVKRATHIVDLHTGAIHRDNLPQIRCDTDDEVMLDMANAFGAPVIMSSKAREGSMRGYANSLNIPCILYEAGEALRFSDMSIKSGVNGVINVMRCLSMTKGKIKTKSTSVNASRSYWVRSESDGLVNIKLKLGERVSKGQVLANIVNPLGGEPSPLLAPTDGIIIGNSNIPVTNEGEALFHIAQFSGDEIEIINDNLDDFMQEYA", "soluble on expression in E. coli": "not soluble"}
{"sequence": "MSLGEETSYCFKEKSRGVLREWYAHNPYPSPREKRELAEATGMTTTQVSNWFKNRRQRDRAAEAKERENTENEGHHHHHH", "soluble on expression in E. coli": "soluble"}
{"sequence": "GSTIAPEEHYTPEEASSREETAWDTAAEEVELLAADGAVHNQELFLECTTSPLIFASAMLNFGVHQILDTLCELAPQPHGRESDERAVEAATGAFDSSREVTDEFSGVVFKVQAGMDKNHRDSLAFMRVVSGEFDRGMQVTHAQSGRSFSTKYALTVFGRTRSTVESAFPGDIVGLVNAGSLAPGDTIFAGRKVQYPPMPQFAPEHFRTLRAKSLGKYKQFRKALDQLAAEGVVQILKNDARGDAAPVMAAVGPMQFEVMMARMQNEYNVETVADPIPYSVARRTTPETATELAKQRGVEIFTRTDGELVALFGDKWKLAFIEKEHPEFELLPMVAD", "soluble on expression in E. coli": "not soluble"}
{"sequence": "MTEFYSDTIGLPKTDPRLWRLRTDELGRESWEYLTPQQAANDPPSTFTQWLLQDPKFPQPHPERNKHSPDFSAFDACHNGASFFKLLQEPDSGIFPCQYKGPMFMTIGYVAVNYIAGIEIPEHERIELIRYIVNTAHPVDGGWGLHSVDKSTVFGTVLNYVILRLLGLPKDHPVCAKARSTLLRLGGAIGSPHWGKIWLSALNLYKWEGVNPAPPETWLLPYSLPMHPGRWWVHTRGVYIPVSYLSLVKFSCPMTPLLEELRNEIYTKPFDKINFSKNRNTVCGVDLYYPHSTTLNIANSLVVFYEKYLRNRFIYSLSKKKVYDLIKTELQNTDSLCIAPVNQAFCALVTLIEEGVDSEAFQRLQYRFKDALFHGPQGMTIMGTNGVQTWDCAFAIQYFFVAGLAERPEFYNTIVSAYKFLCHAQFDTECVPGSYRDKRKGAWGFSTKTQGYTVADCTAEAIKAIIMVKNSPVFSEVHHMISSERLFEGIDVLLNLQNIGSFEYGSFATYEKIKAPLAMETLNPAEVFGNIMVEYPYVECTDSSVLGLTYFHKYFDYRKEEIRTRIRIAIEFIKKSQLPDGSWYGSWGICFTYAGMFALEALHTVGETYENSSTVRKGCDFLVSKQMKDGGWGESMKSSELHSYVDSEKSLVVQTAWALIALLFAEYPNKEVIDRGIDLLKNRQEESGEWKFESVEGVFNHSCAIEYPSYRFLFPIKALGMYSRAYETHTL", "soluble on expression in E. coli": "soluble"}
{"sequence": "MSLNIKDEHIDSVCSLLDQLVGNVSFKNLFTGYGLFHKEETMFAIWQNKKLYLRGEGVLAIQLTKLGCEPFTTNELNKRFVLSQYYALSDQILRSNRLCRKLIILSIKQILEQKLECTLRKLNRLKDLPNLTIKHERALIKVGITNVAMLREIGAENALVELKKSGSGATLDFYWKLVCALQNKNSQMLSQAEKERLLKKLNEVWRKNGLKGYRKLDDEEGHHHHHH", "soluble on expression in E. coli": "soluble"}
{"sequence": "MYDLLVIGAGPGGYVAAIRAAQLGMKVGVVEKEKALGGTCLRVGCIPSKALLETTERIYEAKKGLLGAKVKGVELDLPALMAHKDKVVQANTQGVEFLFKKNGIARHQGTARFLSERKVLVEETGEELEARYILIATGSAPLIPPWAQVDYERVVTSTEALSFPEVPKRLIVVGGGVIGLELGVVWHRLGAEVIVLEYMDRILPTMDLEVSRAAERVFKKQGLTIRTGVRVTAVVPEAKGARVELEGARSWKTDRVLVAVGRRPYTEGLSLENAGLSTDERGRIPVDEHLRTRVPHIYAIGDVVRGPMLAHKASEEGIAAVEHMVRGFGHVDYQAIPSVVYTHPEIAAVGYTEEELKAQGIPYKVGKFPYSASGRARAMGETEGFIKVLAHAKTDRILGVHGIGARVGDVLAEAALALFFKASAEDLGRAPHAHPSLSEILKEAALAAWERPIHL", "soluble on expression in E. coli": "soluble"}
{"sequence": "MSLQAAKEVCLWPLHEREPDTTWSRGPLVLLGDAGHPMRPHMAQGAAMAIEDAAVLVRCLRAYGAAAGAAYDHYQQTRAERVAQVQKVSSENSWMRTPTDPEWVFSYDALLAPEGHHHHHH", "soluble on expression in E. coli": "not soluble"}
{"sequence": "MGSDKIHHHHHHMMQGFLLQTQSIRDEDLIVRVLTKNQLKTLYRFYGKRHSVLNVGRKIDFEEENDDKFLPKLRNILHLGYIWEREMERLFFWQRFCALLFRHLEGVHSLDSVYFDTLDDGANKLAKQHPLRVILEMYATLLNFEGRLQSYNSCFLCDAKLERSVALAQGFILAHPSCLKAKSLNLEKIQAFFRTQSTIDLETEEVEELWRTLNLGF", "soluble on expression in E. coli": "not soluble"}
{"sequence": "MIPGSTSGISFSRILSRQTSHQDATQHTDAQQAEIQQAAEDSSPGAEVQKFVQSTDEMSAALAQFRNRRDYEKKSSNLSNSFERVLEDEALPKAKQILKLISVHGGALEDFLRQARSLFPDPSDLVLVLRELLRRKDLEEIVRKKLESLLKHVEEQTDPKTLKAGINCALKARLFGKTLSLKPGLLRASYRQFIQSESHEVEIYSDWIASYGYQRRLVVLDFIEGSLLTDIDANDASCSRLEFGQLLRRLTQLKMLRSADLLFVSTLLSYSFTKAFNAEESSWLLLMLSLLQQPHEVDSLLADIIGLNALLLSHKEHASFLQIFYQVCKAIPSSLFYEEYWQEELLMALRSMTDIAYKHEMAEQRRTIEKLS", "soluble on expression in E. coli": "not soluble"}
{"sequence": "MVRIIVKNVSKVFKKGKVVALDNVNINIENGERFGILGPSGAGKTTFMRIIAGLDVPSTGELYFDDRLVASNGKLIVPPEDRKIGMVFQTWALYPNLTAFENIAFPLTNMKMSKEEIRKRVEEVAKILDIHHVLNHFPRELSGAQQQRVALARALVKDPSLLLLDEPFSNLDARMRDSARALVKEVQSRLGVTLLVVSHDPADIFAIADRVGVLVKGKLVQVGKPEDLYDNPVSIQVASLIGEINELEGKVTNEGVVIGSLRFPVSVSSDRAIIGIRPEDVKLSKDVIKDDSWILVGKGKVKVIGYQGGLFRITITPLDSEEEIFTYSDHPIHSGEEVLVYVRKDKIKVFEKN", "soluble on expression in E. coli": "soluble"}
{"sequence": "MSRFNPSPVSLSVTLGLMFSASAFAQDATKTDETMVVTAAGYAQVIQNAPASISVISREDLESRYYRDVTDALKSVPGVTVTGGGDTTDISIRGMGSNYTLILVDGKRQTSRQTRPNSDGPGIEQGWLPPLQAIERIEVIRGPMSTLYGSDAIGGVINIITRKDQQQWSGNVQLSTVVQENRASGDEQSANFFVTGPLSDALSLQVYGQTTQRDEDEIEHGYGDKSLRSLTSKLNYQLNPDHQLQLEAGVSAQDRENNVGKSAQSSGCRGTCSNTDNQYRRNHVAVSHQGDWQDVGQSDTYLQYEENTNKSREMSIDNTVFKSTLVAPIGEHMLSFGVEGKHESLEDKTSNKISSRTHISNTQWAGFIEDEWALAEQFRLTFGGRLDHDKNYGSHFSPRVYGVWNLDPLWTVKGGVSTGFRAPQLREVTPDWGQVSGGGNIYGNPDLKPETSINKELSLMYSTGSGLAASLTAFHNDFKDKITRVACPANICTAGPNQWGAAPTYRVNIDEAETYGAEATLSLPITESVELSSSYTYTHSEQKSGNFAGRPLLQLPKHLFNANLSWQTTDRLNSWANLNYRGKEMQPEGGASNDDFIAPSYTFIDTGVTYALTDTATIKAAVYNLFDQEVNYAEYGYVEDGRRYWLGLDIAF", "soluble on expression in E. coli": "not soluble"}
{"sequence": "SLVTRVTLAPGVRVMVAPYPPFLLPLQGRLNCLYMRLRSPVVVPPGDSFSIELKVPFDIAVIASSKGRHTLIDFFPPGGVVPKMAVYGSNVEGLLCRFWRDEWRGPAASARLTIVNNADVQATVSRVVLPRRGLSMFYNPVTGGIAASPIRMSVRDIDSADVWLEEAEPGEGFIEVPLVERDRRLFEALGPLVPGRIAMIWGI", "soluble on expression in E. coli": "not soluble"}
{"sequence": "MPEISPYVTKTEVQLMMAGLDYRKTNGSRDTAPKGQLPWIVDAAQAIADSTFIRVHIERKYDVDLDFGLTGRERAQAWAIERMIENQLGWVSTYFRFLEPANFERGPARAFDQAPGHLRDELRQGLREAVAANIRAVGVGRHLREEVAWLGGLSLRALDELLEDKAYLMRDAYPVGVDATAFAMLAAIMTPFFDSPLRRQAERYPRLVAYVGRMMERFYPAHPWGLRQAALEHHHHHH", "soluble on expression in E. coli": "not soluble"}
{"sequence": "MRPNLRFYVQTINDIVKTTEDIGEVMNPYYEEVRQAIDKNKVNDLTAERIAEIQAKFKEGTEKYELMLKKVGTLKPTPQVLGIHKKFQHAYTEYVAGCNEMILATDPETGIDADLFNASEEKQDQATDELTFAITRMSNILLKK", "soluble on expression in E. coli": "not soluble"}
{"sequence": "MPYVTVKMLEGRTEEQKKALAEKVTAAVSETTGAPEENIVVFIEEMSKNHYAVGGKRLSDK", "soluble on expression in E. coli": "not soluble"}
{"sequence": "MDLSRINTWKSKQLKSFLSSKDAFKADINGHSVLYYAIADNNVRLVCTLLNAGALKNLLDNEFPLHQAATLEDTKIVKILLFSGMDDSQFDDKGNTALYYAVDSGNMQTVKLFVKKNWRLMFYGKTGWKTSFYHAVMLNDVSIVSYFLSEIPSPFDLAILLSCIHTTIKNGHVDMMILLLDYMTSTNTNSLLFIPDIKLAIDNKDIEMLQALFKYDINIYSVNLENVLLDDAEIAKMIIEKHVEYKSDSYTKDLDDVKNNKLDEIISKNEELRLMYVNYVRKNY", "soluble on expression in E. coli": "not soluble"}
{"sequence": "MAHHHHHHMDYRQKAARLPRSAEEKSRWRRVIIILEHCPLAVVRGKYGFELLAERHRAHHARYKQDPAEWRPDVVHQALLHLMDSPLNRAGMLQVFLRTKKGVVIAVDPRLRVPRHMRLFEKMMVSCLYRMKVRAANGSVSLLRVVKNPVTDHIPANCTLIRVEKDGDAVPDIFAYCATCGTNRHADGSTSENVGTATACSSSAGSDAKEPHFAQKHRDLADAKQFRPFAFIIGGMSKGDVDAPYAPRAQVKSIRLGDRGMSAAAACSVIIHGFEEEWLREDNEAC", "soluble on expression in E. coli": "not soluble"}
{"sequence": "MSLQEDPVVMRINGKDIPRSEFEYSYRRHADGNGMKLSPKEYAEFFIQSKLKVEAARAAGLDTTSAFRKQQEAYRTNLLRSYLLDDQEMDGNARILYQKMKENVRGGQVQIQQIYKYLPQTITSRHLQEEQARMDSIYQVIQNQPGVDFARLVDRFSDDKRCRWIESLQTTSEFEEAAFSLAKGEISKPFFTPEGIHILKVIDRKEVPAYEVVSDSLLNRLRRQPLDKGTEAIVEQLKKEYQYIPNMESLEEVLQKGGTERTLFTIDGQAYTGEMFKRFAASHPQAVKRQLNGFIAKSLLDYESQHMERKHPELRYTLQEYAEKCLAEEIVHQKVDLPAVNDRVGLATYFKFHSSDYRWEHPRYKGVVLHCADKKTAKQAKKLLKKVPENEWEDMLRKTFNTSGAEIIKIEQGVFADGDNKYIDKLVFKKGAFDPVVSYPFTIAVGKKQKGPEDYREVIDQVRKDYRNYLNAYWERELRESGKVEINQEVLKTVNNEGHHHHHH", "soluble on expression in E. coli": "soluble"}
{"sequence": "QVQLVESGGGSVQAGGSLRLSCTASGYTIGPYCMGWFRQAPGGEREAVAAINMGGGITYYADSVKGRFTISRDNAKNTVTLQMNSLKPEDTAMYYCAADSTIYASYYECGHGLSTGGYGYDSWGQGTQVTVSSRGRHHHHHH", "soluble on expression in E. coli": "soluble"}
